Test results from publication PMC7618045, “Outer membrane utilisomes mediate oligosaccharide uptake in gut Bacteroidetes” (Nature, 2023).

How the values were obtained:
[1] = target: SusC^dex (B. thetaiotaomicron); test: cryo-EM structure; dextran utilisome (Bt3087-Bt3090), 0.05 mg/ml in 10 mM HEPES, 100 mM NaCl, pH 7.5, 0.03% DDM; heptamers, hexamers and pentamers; 3.1 Å consensus; AlphaFold2 models of SusD^dex, GH^dex and SGBP^dex docked into the map
[2] = target: the molecule itself; test: cryo-EM structure; apo (substrate-free) levan utilisome, 3 mg/ml in 10 mM HEPES pH 7.5, 100 mM NaCl, 0.03% DDM; ~6 Å classes, 3.5 Å focused C2 refinement without SusD

Row | Molecule | stoichiometry N [1] | stoichiometry N [2]
1 | SusC^dex (natural protein) | 2 | 
2 | SusC^lev (natural protein, B. thetaiotaomicron, UniProt Q8A6W3 26-1041, looked up, SusC^lev, the TonB-dependent outer membrane transporter (SusC) of the levan PUL of B. thetaiotaomicron; Two copies stand in the utilisome (SusC2D2 core); written here without a tag; also called levan SusC; source: endogenous, B. thetaiotaomicron grown on fructose; co-purified from detergent-solubilised membranes (LDAO sample; DDM sample: Ni2+ column, SEC)) GQNITVKGNVTSKTDGQPIIGASVVETTATTNGTITDFDGNFTLSVPVNSTLKITYIGYKPVTVKAAAIVNVLLEEDTQMVDEVVVTGYTTQRKADLTGAVSVVKVDEIQKQGENNPVKALQGRVPGMNITADGNPSGSATVRIRGIGTLNNNDPLYIIDGVPTKAGMHELNGNDIESIQVLKDAASASIYGSRAANGVIIITTKQGKKGQIKINFDASVSASMYQSKMNVLNTEQYGRAMWQAYVNDGENPNGNALGYAYNWGYNADGNPVLYGMTLSKYLDSKNTMPVADTDWFDEITRTGVIQQYNLSVSNGSEKGSSFFSLGYYKNLGVIKDTDFDRFSARMNSDYKLIDDILTIGQHFTLNRTSEVQAPGGIIETALDIPSAIPVYASDGSWGGPVGGWPDRRNPRAVLEYNKDNRYTYWRMFGDAYVNLTPFKGFNLRSTFGLDYANKQARYFTYPYQEGTQTNNGKSAVEAKQEHWTKWMWNAIATYQLEVGKHRGDVMIGMELNREDDSHFSGYKEDFSILTPDYMWPDAGSGTAQAYGAGEGYSLVSFFGKMNYSYADRYLLSLTLRRDGSSRFGKNHRYATFPSVSLGWRITQENFMKELTWLDDLKLRASWGQTGNQEISNLARYTIYAPNYGTTDSFGGQSYGTAYDITGSNGGGVLPSGFKRNQIGNDNIKWETTTQTNVGIDFSLFKQSLYGSLEYYYKKATDILTEMAGVGVLGEGGSRWINSGAMKNQGFEFNLGYRNKTAFGLTYDLNGNISTYRNEILELPETVAANGKFGGNGVKSVVGHTYGAQVGYIADGIFKSQDEVDNHATQEGAAVGRIRYRDIDHNGVIDERDQNWIYDPTPSFSYGLNIYLEYKNFDLTMFWQGVQGVDIISDVKKKSDFWSASNVGFLNKGTRLLNAWSPTNPNSDIPALTRSDTNNEQRVSTYFVENGSFLKLRNIQLGYTVPAVISKKMRMDRLRFYCSAQNLLTIKSKNFTGEDPENPNFSYPIPVNITFGLNIGF |  | 2
